The results in this text go back to patent US20210104294A1 (published 2021).

In general, IC50 refers to the midpoint of a concentration-inhibition curve.

Some targets named below: HLA-B*51:01 (human); HLA-B*54:01 (human, UniProt P01889 25-309); HLA-A*29:02 (human, UniProt P04439 25-308).
Common to all, as to test: in vitro peptide-MHC affinity measurement
For a further assay, the target named is T1, HLA-A*01:01 (human, UniProt P04439-2 25-302).
T1 chain: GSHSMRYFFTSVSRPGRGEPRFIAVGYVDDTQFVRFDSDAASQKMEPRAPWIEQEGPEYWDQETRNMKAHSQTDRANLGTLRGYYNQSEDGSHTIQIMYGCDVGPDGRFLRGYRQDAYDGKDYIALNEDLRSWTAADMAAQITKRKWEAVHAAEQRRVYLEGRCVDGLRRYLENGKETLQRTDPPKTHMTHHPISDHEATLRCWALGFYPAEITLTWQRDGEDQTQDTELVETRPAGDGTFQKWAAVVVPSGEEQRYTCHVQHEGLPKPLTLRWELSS

In turn, IIYPTPKVV displayed an IC50 with HLA-B*51:01 of 38 nM.

As to FVEILIPVA, in the assay with HLA-B*54:01, the IC50 stood at 12.2 nM.

Take YVPEHWEYY: the IC50 with HLA-A*01:01 worked out at 11.1 nM.

In the assay with HLA-B*54:01, YGFVNYVTA had an IC50 of 6 nM.

On to DAPLNIRSI, for which, in the assay with HLA-B*51:01, the IC50 came to 6.5 nM.

Turning to YIIEREPLI, inhibition in the assay with HLA-B*51:01 was half-maximal at 1790 nM (IC50).

In the assay with HLA-B*51:01, DGYVVKETI displayed an IC50 of 13.4 nM.

In the assay with HLA-B*54:01, YPVYQPVGP displayed an IC50 of 1.7 nM.

TTDGYLLRL yielded an IC50 with HLA-A*01:01 of 78.9 nM.

With YLPALKVEY, the IC50 in the assay with HLA-A*29:02 was determined as 2.6 nM.

Turning to DAYPQRIKF, it took 31 nM to reach half-maximal inhibition with HLA-B*51:01 (IC50).

ALSDLALHF had an IC50 in the assay with HLA-A*29:02 of 6 nM.

Regarding TPESKIRFV, in the assay with HLA-B*51:01, inhibition was half-maximal at 84.8 nM (IC50).

SAPVNFISA returned an IC50 in the assay with HLA-B*54:01 of 16.6 nM.

In the case of ATDGKVLLW, half-maximal inhibition with HLA-A*01:01 (IC50) required 191 nM.

In the assay with HLA-A*29:02, FYPELKLAY yielded an IC50 of 0.2 nM.

The molecule HFLDRHLVF displayed an IC50 with HLA-A*29:02 of 1.6 nM.

As to KLDLLEQEY, the midpoint of inhibition with HLA-A*01:01, the IC50, lay at 70.6 nM.

In the assay with HLA-B*51:01, DGLRDLPSI yielded an IC50 of 12.6 nM.

In turn, FLWPEAFLY displayed an IC50 with HLA-A*01:01 of 1.3 nM.

As for DGRLVINRV, in the assay with HLA-B*51:01, inhibition was half-maximal at 13.5 nM (IC50).

DGLLRVLTV came in with an IC50 with HLA-B*51:01 of 0.2 nM.

GLDDKLLHY came in with an IC50 with HLA-A*29:02 of 21.3 nM.

LPLDIQIFY: half-maximal inhibition in the assay with HLA-A*29:02 (IC50) was put at 4.6 nM.

GLPDLVAKY gave an IC50 with HLA-A*29:02 of 29.7 nM.

As for FPKETFEGP, 16.4 nM corresponded to half-maximal inhibition with HLA-B*54:01 (IC50).

Molecule DTEFPNFKY displayed an IC50 in the assay with HLA-A*01:01 of 80.8 nM.

For the molecule VPPLVPKVL, in the assay with HLA-B*51:01, the IC50 was found to be 56.3 nM.

The molecule VALLVGEKV gave an IC50 with HLA-B*51:01 of 144 nM.
